Assay results taken from US20260258084A1, “New Peptides as Selective IL-23 Receptor Antagonists” (Sanofi, priority 2022, published 2026).
Starred links: 1 amine or outer side, 2 acyl side, 3 side chain; linkers in the order of their positions; H or OH if unused. Positions of bridges follow the written chain, without caps; N, C: chain ends. Non-standard residues stand in square brackets, D forms with d. Yde = (2S)-2-amino-3-[4-[2-(dimethylamino)ethoxy]phenyl]propanoic acid, CN(C)CCOc1ccc(C[C@H](N[*:1])C(=O)[*:2])cc1; Phe(4-OMe) = COc1ccc(C[C@H](N[*:1])C(=O)[*:2])cc1; Trp(7-Me) = Cc1cccc2c(C[C@H](N)C(=O)O)c[nH]c12; αMeLys(Me2) = CN(C)CCCC[C@](C)(N)C(=O)O; 2Nal = N[C@@H](Cc1ccc2ccccc2c1)C(=O)O; εLys = N[C@@H](CCCCN[*:1])C(=O)[*:2]; AEF = NCCOc1ccc(C[C@H](N)C(=O)O)cc1; NMe5Ava = CN(CCCCC(=O)[*:2])[*:1]; 3Pal = N[C@@H](Cc1cccnc1)C(=O)O; NMeN = CN[C@@H](CC(N)=O)C(=O)O; αMeL = CC(C)C[C@](C)(N)C(=O)O; Thp = NC1(C(=O)O)CCOCC1; Aib = CC(C)(N)C(=O)O; Ahx = NCCCCCC(=O)O; Ava = NCCCCC(=O)O; βAla = NCCC(=O)O; Sar = CNCC(=O)O

T1: IL-23 receptor on the surface of HEK-Blue IL-23 cells (UniProt Q5VWK5 24-629, limits assumed)
T1 sequence (looked up): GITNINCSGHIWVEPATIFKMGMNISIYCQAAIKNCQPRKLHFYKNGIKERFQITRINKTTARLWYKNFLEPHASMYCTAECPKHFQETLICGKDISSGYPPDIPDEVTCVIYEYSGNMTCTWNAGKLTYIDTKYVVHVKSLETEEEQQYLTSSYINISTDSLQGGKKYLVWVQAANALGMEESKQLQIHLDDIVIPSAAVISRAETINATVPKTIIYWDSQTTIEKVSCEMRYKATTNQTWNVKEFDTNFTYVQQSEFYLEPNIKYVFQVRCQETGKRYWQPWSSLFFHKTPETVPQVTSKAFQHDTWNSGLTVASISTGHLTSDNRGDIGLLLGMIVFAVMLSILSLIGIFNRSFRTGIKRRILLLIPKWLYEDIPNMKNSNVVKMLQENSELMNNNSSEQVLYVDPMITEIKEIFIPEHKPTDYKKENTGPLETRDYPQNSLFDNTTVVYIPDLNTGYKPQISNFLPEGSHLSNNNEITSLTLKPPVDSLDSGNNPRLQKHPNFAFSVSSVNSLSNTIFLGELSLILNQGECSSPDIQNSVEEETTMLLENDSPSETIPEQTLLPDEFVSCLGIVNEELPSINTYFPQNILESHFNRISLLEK

B1: Compound of SEQ ID NO: 46 (peptide)
peptide: [Ava]CNT[Trp(7-Me)]K(Ac)C[Yde][2Nal][Thp]ENH[Sar]-NH2
modifications: lactam N-11; disulfide 2-7
SMILES: CC(=O)NCCCC[C@@H]1NC(=O)[C@H](Cc2c[nH]c3c(C)cccc23)NC(=O)[C@H]([C@@H](C)O)NC(=O)[C@H](CC(N)=O)NC(=O)[C@@H]2CSSC[C@H](NC1=O)C(=O)N[C@@H](Cc1ccc(OCCN(C)C)cc1)C(=O)N[C@@H](Cc1ccc3ccccc3c1)C(=O)NC1(CCOCC1)C(=O)N[C@H](C(=O)N[C@@H](CC(N)=O)C(=O)N[C@@H](Cc1c[nH]cn1)C(=O)N(C)CC(N)=O)CCC(=O)NCCCCC(=O)N2
B2: Compound of SEQ ID NO: 47 (peptide)
peptide: [Ava]CNT[Trp(7-Me)]K(Ac)C[Yde][2Nal][αMeL]ENH[Sar]-NH2
modifications: lactam N-11; disulfide 2-7
SMILES: CC(=O)NCCCC[C@@H]1NC(=O)[C@H](Cc2c[nH]c3c(C)cccc23)NC(=O)[C@H]([C@@H](C)O)NC(=O)[C@H](CC(N)=O)NC(=O)[C@@H]2CSSC[C@H](NC1=O)C(=O)N[C@@H](Cc1ccc(OCCN(C)C)cc1)C(=O)N[C@@H](Cc1ccc3ccccc3c1)C(=O)N[C@@](C)(CC(C)C)C(=O)N[C@H](C(=O)N[C@@H](CC(N)=O)C(=O)N[C@@H](Cc1c[nH]cn1)C(=O)N(C)CC(N)=O)CCC(=O)NCCCCC(=O)N2
B3: Compound of SEQ ID NO: 48 (peptide)
peptide: [Ava]CNT[Trp(7-Me)]K(Ac)C[Yde][2Nal][Aib]ENH[βAla]-NH2
modifications: lactam N-11; disulfide 2-7
SMILES: CC(=O)NCCCC[C@@H]1NC(=O)[C@H](Cc2c[nH]c3c(C)cccc23)NC(=O)[C@H]([C@@H](C)O)NC(=O)[C@H](CC(N)=O)NC(=O)[C@@H]2CSSC[C@H](NC1=O)C(=O)N[C@@H](Cc1ccc(OCCN(C)C)cc1)C(=O)N[C@@H](Cc1ccc3ccccc3c1)C(=O)NC(C)(C)C(=O)N[C@H](C(=O)N[C@@H](CC(N)=O)C(=O)N[C@@H](Cc1c[nH]cn1)C(=O)NCCC(N)=O)CCC(=O)NCCCCC(=O)N2
B4: Compound of SEQ ID NO: 49 (peptide)
peptide: [Ava]CNT[Trp(7-Me)]K(Ac)C[Yde][2Nal][Thp]ENH[βAla]-NH2
modifications: lactam N-11; disulfide 2-7
SMILES: CC(=O)NCCCC[C@@H]1NC(=O)[C@H](Cc2c[nH]c3c(C)cccc23)NC(=O)[C@H]([C@@H](C)O)NC(=O)[C@H](CC(N)=O)NC(=O)[C@@H]2CSSC[C@H](NC1=O)C(=O)N[C@@H](Cc1ccc(OCCN(C)C)cc1)C(=O)N[C@@H](Cc1ccc3ccccc3c1)C(=O)NC1(CCOCC1)C(=O)N[C@H](C(=O)N[C@@H](CC(N)=O)C(=O)N[C@@H](Cc1c[nH]cn1)C(=O)NCCC(N)=O)CCC(=O)NCCCCC(=O)N2
B5: Compound of SEQ ID NO: 50 (peptide)
peptide: [Ava]CNT[Trp(7-Me)]K(Ac)C[Yde][2Nal][αMeL]ENH[βAla]-NH2
modifications: lactam N-11; disulfide 2-7
SMILES: CC(=O)NCCCC[C@@H]1NC(=O)[C@H](Cc2c[nH]c3c(C)cccc23)NC(=O)[C@H]([C@@H](C)O)NC(=O)[C@H](CC(N)=O)NC(=O)[C@@H]2CSSC[C@H](NC1=O)C(=O)N[C@@H](Cc1ccc(OCCN(C)C)cc1)C(=O)N[C@@H](Cc1ccc3ccccc3c1)C(=O)N[C@@](C)(CC(C)C)C(=O)N[C@H](C(=O)N[C@@H](CC(N)=O)C(=O)N[C@@H](Cc1c[nH]cn1)C(=O)NCCC(N)=O)CCC(=O)NCCCCC(=O)N2
B6: Compound of SEQ ID NO: 51 (peptide)
peptide: [Ava]CNT[Trp(7-Me)]K(Ac)C[Yde][2Nal][Thp]EN[3Pal]-NH2
modifications: lactam N-11; disulfide 2-7
SMILES: CC(=O)NCCCC[C@@H]1NC(=O)[C@H](Cc2c[nH]c3c(C)cccc23)NC(=O)[C@H]([C@@H](C)O)NC(=O)[C@H](CC(N)=O)NC(=O)[C@@H]2CSSC[C@H](NC1=O)C(=O)N[C@@H](Cc1ccc(OCCN(C)C)cc1)C(=O)N[C@@H](Cc1ccc3ccccc3c1)C(=O)NC1(CCOCC1)C(=O)N[C@H](C(=O)N[C@@H](CC(N)=O)C(=O)N[C@@H](Cc1cccnc1)C(N)=O)CCC(=O)NCCCCC(=O)N2
B7: Compound of SEQ ID NO: 52 (peptide)
peptide: [Ava]CNT[Trp(7-Me)]QC[Yde][2Nal][Aib]ENH-NH2
modifications: lactam N-11; disulfide 2-7
SMILES: Cc1cccc2c(C[C@@H]3NC(=O)[C@H]([C@@H](C)O)NC(=O)[C@H](CC(N)=O)NC(=O)[C@@H]4CSSC[C@H](NC(=O)[C@H](CCC(N)=O)NC3=O)C(=O)N[C@@H](Cc3ccc(OCCN(C)C)cc3)C(=O)N[C@@H](Cc3ccc5ccccc5c3)C(=O)NC(C)(C)C(=O)N[C@H](C(=O)N[C@@H](CC(N)=O)C(=O)N[C@@H](Cc3c[nH]cn3)C(N)=O)CCC(=O)NCCCCC(=O)N4)c[nH]c12
B8: Compound of SEQ ID NO: 53 (peptide)
peptide: [Ahx]C[Ava]WQC[AEF][2Nal][Aib]DAG-NH2
modifications: lactam N-10; disulfide 2-6
SMILES: C[C@H](NC(=O)[C@@H]1CC(=O)NCCCCCC(=O)N[C@H]2CSSC[C@H](NC(=O)[C@H](CCC(N)=O)NC(=O)[C@H](Cc3c[nH]c4ccccc34)NC(=O)CCCCNC2=O)C(=O)N[C@@H](Cc2ccc(OCCN)cc2)C(=O)N[C@@H](Cc2ccc3ccccc3c2)C(=O)NC(C)(C)C(=O)N1)C(=O)NCC(N)=O
B9: Compound of SEQ ID NO: 54 (peptide)
peptide: [Ava]CNT[Trp(7-Me)]K(Ac)C[Yde][2Nal][αMeLys(Me2)]EN[dL]-NH2
modifications: lactam N-11; disulfide 2-7
SMILES: CC(=O)NCCCC[C@@H]1NC(=O)[C@H](Cc2c[nH]c3c(C)cccc23)NC(=O)[C@H]([C@@H](C)O)NC(=O)[C@H](CC(N)=O)NC(=O)[C@@H]2CSSC[C@H](NC1=O)C(=O)N[C@@H](Cc1ccc(OCCN(C)C)cc1)C(=O)N[C@@H](Cc1ccc3ccccc3c1)C(=O)N[C@@](C)(CCCCN(C)C)C(=O)N[C@H](C(=O)N[C@@H](CC(N)=O)C(=O)N[C@H](CC(C)C)C(N)=O)CCC(=O)NCCCCC(=O)N2
B10: Compound of SEQ ID NO: 55 (peptide)
peptide: [Ava]CNT[Trp(7-Me)]K(Ac)C[Yde][2Nal][Thp]ENHX-NH2
modifications: lactam N-11; disulfide 2-7; not fully specified (residue 14); printed as Apt(§1)-C(@2)-N-T-Wim-K[Ac]-C(@2)-Yde-Nal-Thp-E(§1)-N—H-Mep-NH2
B11: Compound of SEQ ID NO: 56 (peptide)
peptide: [Ava]CNT[Trp(7-Me)]K(Ac)C[Yde][2Nal][Thp]ES[3Pal][Sar]-NH2
modifications: lactam N-11; disulfide 2-7
SMILES: CC(=O)NCCCC[C@@H]1NC(=O)[C@H](Cc2c[nH]c3c(C)cccc23)NC(=O)[C@H]([C@@H](C)O)NC(=O)[C@H](CC(N)=O)NC(=O)[C@@H]2CSSC[C@H](NC1=O)C(=O)N[C@@H](Cc1ccc(OCCN(C)C)cc1)C(=O)N[C@@H](Cc1ccc3ccccc3c1)C(=O)NC1(CCOCC1)C(=O)N[C@H](C(=O)N[C@@H](CO)C(=O)N[C@@H](Cc1cccnc1)C(=O)N(C)CC(N)=O)CCC(=O)NCCCCC(=O)N2
B12: Compound of SEQ ID NO: 58 (peptide)
peptide: [Ava]CNTWK(Ac)C[Yde][2Nal][αMeLys(Me2)]EN[3Pal][Sar]-NH2
modifications: lactam N-11; disulfide 2-7
SMILES: CC(=O)NCCCC[C@@H]1NC(=O)[C@H](Cc2c[nH]c3ccccc23)NC(=O)[C@H]([C@@H](C)O)NC(=O)[C@H](CC(N)=O)NC(=O)[C@@H]2CSSC[C@H](NC1=O)C(=O)N[C@@H](Cc1ccc(OCCN(C)C)cc1)C(=O)N[C@@H](Cc1ccc3ccccc3c1)C(=O)N[C@@](C)(CCCCN(C)C)C(=O)N[C@H](C(=O)N[C@@H](CC(N)=O)C(=O)N[C@@H](Cc1cccnc1)C(=O)N(C)CC(N)=O)CCC(=O)NCCCCC(=O)N2
B13: Compound of SEQ ID NO: 59 (peptide)
peptide: [Ava]C[εLys](Ac)WK(Ac)C[Yde][2Nal][αMeLys(Me2)]EN[3Pal][Sar]-NH2
modifications: lactam N-10; disulfide 2-6; also: Cys2 bonded to epsilon-NH2 of Lys3, Lys3 alpha-amine acetylated (K[aAc])
B14: Compound of SEQ ID NO: 6 (peptide)
peptide: [Ahx]C[NMeN]TWQC[Phe(4-OMe)][2Nal][Aib]DNN-NH2
modifications: lactam N-11; disulfide 2-7
SMILES: COc1ccc(C[C@@H]2NC(=O)[C@@H]3CSSC[C@H](NC(=O)CCCCCNC(=O)C[C@@H](C(=O)N[C@@H](CC(N)=O)C(=O)N[C@@H](CC(N)=O)C(N)=O)NC(=O)C(C)(C)NC(=O)[C@H](Cc4ccc5ccccc5c4)NC2=O)C(=O)N(C)[C@@H](CC(N)=O)C(=O)N[C@@H]([C@@H](C)O)C(=O)N[C@@H](Cc2c[nH]c4ccccc24)C(=O)N[C@@H](CCC(N)=O)C(=O)N3)cc1
B15: Compound of SEQ ID NO: 60 (peptide)
peptide: [NMe5Ava]C[εLys](Ac)[Trp(7-Me)]K(Ac)C[Yde][2Nal][Aib]ENH-NH2
modifications: lactam N-10; disulfide 2-6; also: Cys2 bonded to epsilon-NH2 of Lys3, Lys3 alpha-amine acetylated (K[aAc])

Molecular target: T1, IL-23 receptor on the surface of …
Assay: cell-based or functional assay

Binder	pSTAT3 (nM)
B1	0.84 nM
B2	0.57 nM
B3	0.6 nM
B4	1.79 nM
XCNTWQCXXXENN (Apt(§1)-C(@2)-N-T-W-Q-C(@2)-Yae-Nal-Aib-E(§1)-N-N-NH2) [Compound of SEQ ID NO: 5]	9.66 nM
B5	0.98 nM
B6	0.05 nM
B7	1.25 nM
B8	60.8 nM
B9	2.59 nM
B10	0.95 nM
B11	0.16 nM
B12	0.1 nM
B13	0.07 nM
B14	72.9 nM
B15	0.16 nM
